Data as given in article PMC11287377, “tRNA ^Arg binds in vitro TDP-43 RNA recognition motifs and ligand of Ate1 protein LIAT1” (microPublication Biology, 2024).

B1: human TDP-43 NTD-ΔNLS-RRM1-RRM2 (residues 1-85 and 101-266) (domain or fragment, UniProt Q13148 1-85, looked up)
chain: MSEYIRVTEDENDEPIEIPSEDDGTVLLSTVTAQFPGACGLRYRNPVSQCMRGVRLVEGILHAPDAGWGNLVYVVNYPKDNKRKMQKTSDLIVLGLPWKTTEQDLKEYFSTFGEVLMVQVKKDLKTGHSKGFGFVRFTEYETQVKVMSQRHMIDGRWCDCKLPNSKQSQDEPLRSRKVFVGRCTEDMTEDELREFFSQYGDVMDVFIPKPFRAFAFVTFADDQIAQSLCGEDLIIKGISVHISNAEPKHNS
notes: Internal deletion of the NLS linker (residues 86-100); no replacing linker is mentioned; Tags removed with TEV protease; also called hTDP-43 NTD-ΔNLS-RRM1-RRM2; source: E. coli BL21 KRX, purified (NiNTA, TEV digestion, SEC)
B2: human TDP-43 NLS-RRM1-RRM2 (residues 85-266) (domain or fragment, UniProt Q13148 85-266, looked up)
chain: MDETDASSAVKVKRAVQKTSDLIVLGLPWKTTEQDLKEYFSTFGEVLMVQVKKDLKTGHSKGFGFVRFTEYETQVKVMSQRHMIDGRWCDCKLPNSKQSQDEPLRSRKVFVGRCTEDMTEDELREFFSQYGDVMDVFIPKPFRAFAFVTFADDQIAQSLCGEDLIIKGISVHISNAEPKHNS
notes: Tags removed with TEV protease; also called hTDP-43 NLS-RRM1-RRM2; source: E. coli BL21 KRX, purified (NiNTA, TEV digestion, SEC)
B3: recombinant mouse LIAT1 (ligand of Ate1 protein), full length (natural protein, UniProt Q810M6 1-228, looked up)
chain: MAGRGGTGAAEYGEEGEEEEEEEAREGGAEGSPGSKLPPIVGTASELAKRKVKKKKKKKKTKGSGKGDADKHHSRGRKNQPLSSSFHDILNPHKDHGLRAEPRDKEENRQTLPYSYSINHPCFAEIEDTLSSQINESLRWDGILTDPEAEKERIRIYKLNRRKRYRLMALKCFHSDPCVEESVENLPYLSDKDCSPCSKQPSSKGDHAHSYFEASKLLHPELATTVAE
notes: LIAT1 (ligand of Ate1), Mus musculus, full length, theoretical molecular weight ~24 kDa; Tags removed with TEV protease; also called mLIAT1; source: E. coli BL21 KRX, purified (NiNTA, TEV digestion, SEC)
B4: human TDP-43 NTD (residues 1-85) (domain or fragment, UniProt Q13148 1-85, looked up)
chain: MSEYIRVTEDENDEPIEIPSEDDGTVLLSTVTAQFPGACGLRYRNPVSQCMRGVRLVEGILHAPDAGWGNLVYVVNYPKDNKRKM
notes: Tags removed with TEV protease; also called hTDP-43 NTD; source: E. coli BL21 KRX, purified (NiNTA, TEV digestion, SEC)

Target: the molecule itself
Assay: SEC; 500 uL of tagless purified protein on Superdex 75 10/30 in SEC buffer (150 mM KCl, 20 mM NaCl, 1 mM MgCl2, 5% glycerol, 50 mM HEPES pH 7.7), 0.5 mL/min; size from a calibration curve of standard proteins

Stoichiometry N, 2:
B1
B2
B3
B4
